Target: the molecule itself
Assay: SEC-MALS; 25 °C, Superdex 200 Increase 10/300 GL, ~2 mg/mL, 100 μL injected, 25 mM Tris-HCl pH 8.0, 150 mM NaCl

B1: periplasmic part of MreC (residues 36-367) from Escherichia coli (domain or fragment, E. coli, UniProt P16926 36-367, looked up)
chain: SQIRTYMDTAVSPFYFVSNAPRELLDGVSQTLASRDQLELENRALRQELLLKNSELLMLGQYKQENARLRELLGSPLRQDEQKMVTQVISTVNDPYSDQVVIDKGSVNGVYEGQPVISDKGVVGQVVAVAKLTSRVLLICDATHALPIQVLRNDIRVIAAGNGCTDDLQLEHLPANTDIRVGDVLVTSGLGGRFPEGYPVAVVSSVKLDTQRAYTVIQARPTAGLQRLRYLLLLWGADRNGANPMTPEEVHRVANERLMQMMPQVLPSPDAMGPKLPEPATGIAQPTPQQPATGNAATAPAAPTQPAANRSPQRATPPQSGAQPPARAPGGQ
notes: Cell shape-determining protein MreC, E. coli BL21(DE3) strain, residues 36-367, lacks the N-terminal transmembrane region; holds the coiled coil, two six-stranded beta-barrels and the pro-rich region; the cDNA came from strain BL21(DE3); pET21b usually adds a C-terminal His6 (surmised); About 37 kDa per chain as printed; also called truncated MreC; major periplasmic domain of MreC; source: E. …
For B1, the “stoichiometry N” value was 2.

— paper PMC8804602 (FEBS Open Bio, 2022)
